{
  "source": "paper PMC8339797",
  "about": "(2021)",
  "biological_target": "T1, RGD-decorated Fc-dextran-MMAE construct 20 (cyclo[RGDfK] multimer) (also: multivalent on dextran conjugated to aglycosylated human Fc N297A with MMAE)",
  "T1 chain": "cyclo(RGD[dF]K([Propanoyl(3-triazol-4-yl)-dextran]))",
  "test": "flow cytometry cell binding (apparent KD)",
  "note": "Numbered stars: 1 amine (or outer) side, 2 acyl side, 3 side chain; on linkers, the order of the positions; unused ones are H or OH. Square brackets hold non-standard residues; d marks the D form. Side chains are listed from the residue outwards. dextran = polysaccharide of α-(1–6)-linked D-glucose units with low branching; Propanoyl(3-triazol-4-yl) = O=C(CCc1cn([*:1])nn1)[*:2]",
  "data": [
    {"binder": "integrin alpha-v beta-3 (on U87MG cells) (protein) chain 1: FNLDVDSPAEYSGPEGSYFGFAVDFFVPSASSRMFLLVGAPKANTTQPGIVEGGQVLKCDWSSTRRCQPIEFDATGNRDYAKDDPLEFKSHQWFGASVRSKQDKILACAPLYHWRTEMKQEREPVGTCFLQDGTKTVEYAPCRSQDIDADGQGFCQGGFSIDFTKADRVLLGGPGSFYWQGQLISDQVAEIVSKYDPNVYSIKYNNQLATRTAQAIFDDSYLGYSVAVGDFNGDGIDDFVSGVPRAARTLGMVYIYDGKNMSSLYNFTGEQMAAYFGFSVAATDINGDDYADVFIGAPLFMDRGSDGKLQEVGQVSVSLQRASGDFQTTKLNGFEVFARFGSAIAPLGDLDQDGFNDIAIAAPYGGEDKKGIVYIFNGRSTGLNAVPSQILEGQWAARSMPPSFGYSMKGATDIDKNGYPDLIVGAFGVDRAILYRARPVITVNAGLEVYPSILNQDNKTCSLPGTALKVSCFNVRFCLKADGKGVLPRKLNFQVELLLDKLKQKGAIRRALFLYSRSPSHSKNMTISRGGLMQCEELIAYLRDESEFRDKLTPITIFMEYRLDYRTAADTTGLQPILNQFTPANISRQAHILLDCGEDNVCKPKLEVSVDSDQKKIYIGDDNPLTLIVKAQNQGEGAYEAELIVSIPLQADFIGVVRNNEALARLSCAFKTENQTRQVVCDLGNPMKAGTQLLAGLRFSVHQQSEMDTSVKFDLQIQSSNLFDKVSPVVSHKVDLAVLAAVEIRGVSSPDHVFLPIPNWEHKENPETEEDVGPVVQHIYELRNNGPSSFSKAMLHLQWPYKYNNNTLLYILHYDIDGPMNCTSDMEINPLRIKISSLQTTEKNDTVAGQGERDHLITKRDLALSEGDIHTLGCGVAQCLKIVCQVGRLDRGKSAILYVKSLLWTETFMNKENQNHSYSLKSSASFNVIEFPYKNLPIEDITNSTLVTTNVTWGIQPAPMPV chain 2: GPNICTTRGVSSCQQCLAVSPMCAWCSDEALPLGSPRCDLKENLLKDNCAPESIEFPVSEARVLEDRPLSDKGSGDSSQVTQVSPQRIALRLRPDDSKNFSIQVRQVEDYPVDIYYLMDLSYSMKDDLWSIQNLGTKLATQMRKLTSNLRIGFGAFVDKPVSPYMYISPPEALENPCYDMKTTCLPMFGYKHVLTLTDQVTRFNEEVKKQSVSRNRDAPEGGFDAIMQATVCDEKIGWRNDASHLLVFTTDAKTHIALDGRLAGIVQPNDGQCHVGSDNHYSASTTMDYPSLGLMTEKLSQKNINLIFAVTENVVNLYQNYSELIPGTTVGVLSMDSSNVLQLIVDAYGKIRSKVELEVRDLPEELSLSFNATCLNNEVIPGLKSCMGLKIGDTVSFSIEAKVRGCPQEKEKSFTIKPVGFKDSLIVQVTFDCDCACQAQAEPNSHRCNNGNGTFECGVCRCGPGWLGSQCECSEEDYRPSQQDECSPREGQPVCSQRGECLCGQCVCHSSDFGKITGKYCECDDFSCVRYKGEMCSGHGQCSCGDCLCDSDWTGYYCNCTTRTDTCMSSNGLLCSGRGKCECGSCVCIQPGSYGDTCEKCPTCPDACTFKKECVECKKFDRGALHDENTCNRYCRDEIESVKELKDTGKDAVNCTYKNEDDCVVRFQYYEDSSGKSILYVVEEPECPKGPD", "values": [
      {"measurement": "Kd", "value": 33, "unit": "nM"}
    ]}
  ]
}
